Common to all, as to test: two-hybrid library CCNG1;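 note: natural log of median RNA to DNA barcode read ratio; higher means stronger binding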
In one experiment the target is T1, 4H1359-bH.
T1 chain: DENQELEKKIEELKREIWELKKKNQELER

A further experiment has as its target T2, 4H1393-bH.
T2 chain: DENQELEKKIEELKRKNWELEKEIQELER

Another experiment addresses T3, 4H1449-bH.
T3 chain: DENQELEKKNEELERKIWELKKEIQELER

The target in the next experiment is T4, 4H1629-bH.
T4 chain: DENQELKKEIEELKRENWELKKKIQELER

Another experiment deals with T5, 4H1710-bH.
T5 chain: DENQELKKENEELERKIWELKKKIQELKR

Another experiment concerns the target T6, 4H1804-bH.
T6 chain: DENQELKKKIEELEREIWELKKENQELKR

A further experiment deals with T7, 4H1985-bH.
T7 chain: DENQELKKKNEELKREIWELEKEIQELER

A further experiment addresses T8, 4H3129-bH.
T8 chain: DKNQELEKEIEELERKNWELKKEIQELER

In the next experiment the target is T9, 4H3172-bH.
T9 chain: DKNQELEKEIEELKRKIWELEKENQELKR

The target of a further experiment is T10, 4H3414-bH.
T10 chain: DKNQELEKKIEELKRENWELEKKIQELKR

The target in another experiment is T11, 4H3631-bH.
T11 chain: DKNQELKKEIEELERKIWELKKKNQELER

Another experiment deals with T12, 4H3638-bH.
T12 chain: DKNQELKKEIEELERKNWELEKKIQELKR

For a further experiment, the target named is T13, 4H3817-bH.
T13 chain: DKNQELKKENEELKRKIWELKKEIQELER

The target of a further experiment is T14, 4H3974-bH.
T14 chain: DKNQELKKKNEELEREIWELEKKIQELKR

The target in the next experiment is T15, 4H570-bH.
T15 chain: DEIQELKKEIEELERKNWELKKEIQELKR

A further experiment deals with T16, 4H584-bH.
T16 chain: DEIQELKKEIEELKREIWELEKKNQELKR

The next experiment addresses T17, 4H619-bH.
T17 chain: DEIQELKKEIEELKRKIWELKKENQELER

The target of the next experiment is T18, 4H850-bH.
T18 chain: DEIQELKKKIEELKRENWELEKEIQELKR

Another experiment addresses T19, 4H906-bH.
T19 chain: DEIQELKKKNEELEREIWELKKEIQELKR

The target of a further experiment is T20, 4H932-bN.
T20 chain: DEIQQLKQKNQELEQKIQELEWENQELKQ

Another experiment addresses T21, O10.
T21 chain: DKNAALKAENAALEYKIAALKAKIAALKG

A further experiment concerns the target T22, O11.
T22 chain: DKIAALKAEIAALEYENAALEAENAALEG

In a further experiment the target is T23, O12.
T23 chain: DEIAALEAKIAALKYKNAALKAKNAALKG

For another experiment, the target named is T24, O13.
T24 chain: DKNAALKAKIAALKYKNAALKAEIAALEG

Another experiment deals with T25, O14.
T25 chain: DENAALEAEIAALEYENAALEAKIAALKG

In another experiment the target is T26, O15.
T26 chain: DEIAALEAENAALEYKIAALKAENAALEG

The next experiment addresses T27, O16.
T27 chain: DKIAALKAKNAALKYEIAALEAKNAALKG

The target in a further experiment is T28, O2.
T28 chain: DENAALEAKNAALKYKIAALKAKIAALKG

The next experiment concerns the target T29, O3.
T29 chain: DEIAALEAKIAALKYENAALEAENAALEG

For the next experiment, the target named is T30, O4.
T30 chain: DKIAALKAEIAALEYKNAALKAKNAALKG

In the next experiment the target is T31, O5.
T31 chain: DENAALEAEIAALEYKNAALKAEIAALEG

For another experiment, the target named is T32, O6.
T32 chain: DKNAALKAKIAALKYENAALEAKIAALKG

The target in a further experiment is T33, O7.
T33 chain: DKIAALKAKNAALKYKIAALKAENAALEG

The target in the next experiment is T34, O8.
T34 chain: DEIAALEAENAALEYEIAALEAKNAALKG

The target in a further experiment is T35, O9.
T35 chain: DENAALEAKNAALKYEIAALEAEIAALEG

In the case of DENQELEKKIEELKREIWELKKKNQELER [4H1359-bH], the interaction score is 0.989 with 4H1359-bH; -0.756 with 4H1393-bH; 0.00778 with 4H1449-bH; -0.6 in the experiment with 4H1629-bH; -0.389 with 4H1710-bH; 0.574 in the experiment with 4H1804-bH. Besides, the interaction score with 4H1985-bH is 0.67; with 4H3129-bH, -0.249; in the experiment with 4H3172-bH, -0.46; with 4H3414-bH it was -0.291; with 4H3631-bH, 0.884; with 4H3638-bH it was -0.989. Also, the interaction score was 0.0285 with 4H3817-bH; 0.477 with 4H3974-bH; -1.09 with 4H570-bH; 0.303 with 4H584-bH; -0.165 with 4H619-bH; -0.848 with 4H850-bH. Moreover, the figures for the interaction score in the experiment with 4H906-bH and in the experiment with 4H932-bN were 0.0222 and -1.75, respectively.
As to DKNAALKAENAALEYKIAALKAKIAALKG [O10], the interaction score was -2.12 with O10; -1.61 in the experiment with O11; -2.06 with O12; -1.79 in the experiment with O13; -2.41 with O14; -1.1 in the experiment with O15. Further, the interaction score in the experiment with O16 is -1.79; with O2, -0.272; with O3, -1.83; in the experiment with O4 it was -1.67; with O5 it was -0.483; with O6 it was -2.48. Also, the interaction score in the experiment with O7 is -2.17; with O8, -1.57; in the experiment with O9, 2.21.

Values taken from publication PMC10397247.
